The results in this text go back to article PMC4920197, “SMN and coilin negatively regulate dyskerin association with telomerase RNA” (Biology Open, 2016).

The assay has as its target T1, GFP-tagged SMN E134K (human, UniProt Q16637 1-294, E134K).
T1 construct: survivor of motor neuron protein (SMN) with the clinically defined SMA patient mutation E134K, made from GFP-SMN; source: HeLa, transfected (FuGENE HD), in lysate
As to the kind of experiment: co-IP; HeLa cells transfected 24 h with GFP vector or GFP-tagged coilin or SMN constructs; lysate in mRIPA buffer immunoprecipitated with anti-GFP antibody; endogenous dyskerin or NAF1 detected by western blot. Particulars: partners not purified. Background: Immunoblotting shows a protein as a band on a membrane.

T1 sequence (Q16637 whole entry E134K): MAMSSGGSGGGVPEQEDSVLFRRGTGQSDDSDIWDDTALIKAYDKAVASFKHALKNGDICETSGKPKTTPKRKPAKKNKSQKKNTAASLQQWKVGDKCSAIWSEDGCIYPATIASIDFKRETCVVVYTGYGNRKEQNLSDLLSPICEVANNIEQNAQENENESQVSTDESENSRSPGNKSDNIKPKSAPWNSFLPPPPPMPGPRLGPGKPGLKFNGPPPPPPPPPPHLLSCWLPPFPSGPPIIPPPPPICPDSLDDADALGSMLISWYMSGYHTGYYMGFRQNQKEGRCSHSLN

B1: dyskerin (natural protein, human (endogenous in HeLa), UniProt O60832 1-514, looked up)
chain: MADAEVIILPKKHKKKKERKSLPEEDVAEIQHAEEFLIKPESKVAKLDTSQWPLLLKNFDKLNVRTTHYTPLACGSNPLKREIGDYIRTGFINLDKPSNPSSHEVVAWIRRILRVEKTGHSGTLDPKVTGCLIVCIERATRLVKSQQSAGKEYVGIVRLHNAIEGGTQLSRALETLTGALFQRPPLIAAVKRQLRVRTIYESKMIEYDPERRLGIFWVSCEAGTYIRTLCVHLGLLLGVGGQMQELRRVRSGVMSEKDHMVTMHDVLDAQWLYDNHKDESYLRRVVYPLEKLLTSHKRLVMKDSAVNAICYGAKIMLPGVLRYEDGIEVNQEIVVITTKGEAICMAIALMTTAVISTCDHGIVAKIKRVIMERDTYPRKWGLGPKASQKKLMIKQGLLDKHGKPTDSTPATWKQEYVDYSESAKKEVVAEVVKAPQVVAEAAKTAKRKRESESESDETPPAAPQLIKKEKKKSKKDKKAKAGLESGAEPGDGDSDTTKKKKKKKKAKEVELVSE
notes: dyskerin, endogenous in HeLa cells; also called telomerase and box H/ACA scaRNP core protein dyskerin; source: endogenous, HeLa lysate
For B1, the “decrease of dyskerin in the SMN complex relative to WT SMN” value was around 50%.
